Results as given in patent US7833979B2, “Toxin peptide therapeutic agents” (Amgen Inc., priority 2005, dated 2010).

What was measured:
[1] = target: T1, Kv1.3 (Homo sapiens, UniProt P22001); experiment: IonWorks Quattro automated (population patch clamp) electrophysiology on CHO-Kv1.3 cells; type: cell-based; parameters: expressed in transfected cells; conditions: IonWorks planar patch clamp, average IC50, read-out: Kv1.3 IC50 by IWQ
Protocol: Assay Plate preparation for electrophysiology. […] Before experiments, each sample was thawed at room temperature and an aliquot (70 to 80 μl) was transferred to a well in a 96-well polypropylene plate. In order to prepare the Assay Plate, several dilutions were made from the pharmacokinetic serum samples to give rise to Test Solutions. Dilutions of serum samples from the pharmacokinetic study were into 10% Phosphate Buffered Saline (PBS, with Ca^2+ and Mg^2+). […] Standard inhibition curves were also prepared in the Assay Plate.
Cell preparation for electrophysiology. CHO cells stably expressing the voltage-activated K^+ channel, Kv1.3 were plated in T-175 tissue culture flasks (at a density of 5×10^6) 2 days before experimentation and allowed to grow to around 95% confluence. […] The mean K^+ current amplitude was measured between 430 and 440 ms and the data were exported to a Microsoft Excel spreadsheet. The amplitude of the K^+ current in the presence of each concentration of the Test Solution or Standard was expressed as a percentage of the K^+ current in control conditions in the same well.
Standard inhibition curves were generated for each standard in various levels of rat serum and expressed as current percent of control (POC) versus log of nM concentration. […]

[2] = target: fixed HEK 293 cells overexpressing Kv1.3 (Homo sapiens, UniProt P22001); conditions: whole cell immunoassay
Chain of fixed HEK 293 cells overexpressing Kv1.3 (P22001 whole entry): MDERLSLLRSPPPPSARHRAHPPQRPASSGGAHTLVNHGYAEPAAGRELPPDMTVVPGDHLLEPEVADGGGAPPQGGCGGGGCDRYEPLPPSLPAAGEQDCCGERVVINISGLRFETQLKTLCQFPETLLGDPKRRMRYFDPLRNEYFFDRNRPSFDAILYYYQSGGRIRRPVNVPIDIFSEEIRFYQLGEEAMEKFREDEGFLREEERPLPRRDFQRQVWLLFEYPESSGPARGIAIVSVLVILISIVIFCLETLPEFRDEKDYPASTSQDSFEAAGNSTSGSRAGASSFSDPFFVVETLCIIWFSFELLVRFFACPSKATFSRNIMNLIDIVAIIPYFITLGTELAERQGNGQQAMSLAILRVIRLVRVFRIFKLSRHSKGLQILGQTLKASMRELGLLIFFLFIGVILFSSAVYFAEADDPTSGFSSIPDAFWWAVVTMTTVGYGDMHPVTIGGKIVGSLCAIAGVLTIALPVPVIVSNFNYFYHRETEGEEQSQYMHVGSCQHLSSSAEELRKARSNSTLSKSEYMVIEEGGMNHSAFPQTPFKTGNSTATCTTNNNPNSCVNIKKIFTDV
Protocol: Parent HEK 293 cells or HEK Kv1.3 cells were plated at 3×10e4 cells/well in poly-D-Lysine coated ninety-six well plates (#35-4461; Becton-Dickinson, Bedford, Mass.). Cells were fixed with formalin (Sigma HT50-1-1 Formalin solution, diluted 1:1 with PBS/0.5% BSA before use) by removing cell growth medium, adding 0.2 ml/well formalin solution and incubating at room temperature for 25 minutes and then washing one time with 100 ul/well of PBS/0.5% BSA. Wells were blocked by addition of 0.3 ml/well of BSA blocker (50-61-00; KPL 10% BSA Diluent/Blocking Solution, diluted 1:1 with PBS; KPL, Gaithersburg, Md.) followed by incubation at room temperature, with shaking, for 3 hr. Plates were washed 2 times with 1×KP Wash Buffer (50-63-00; KPL). Samples were diluted in Dilution Buffer (PBS/0.5% Tween-20) or Dilution Buffer with 1% Male Lewis Rat Serum (RATSRM-M; Bioreclamation Inc., Hicksville, N.Y.) and 0.1 ml/well was added to blocked plates, incubating for 1 hr at room temperature with shaking. […] Absorbance was read at 450 nm on a Molecular Devices SpectroMax 340 (Sunnyvale, Calif.).
Whole cell immunoassay was performed as above with the following modifications. […] Absorbances were read at 405 nm after stopping reactions by addition of 0.1 ml/well of 1% SDS.

[3] = test system: IL-2 and IFNg production from anti-CD3 and anti-CD28 stimulated human PBMCs; experiment: Inhibition of T cell cytokine production following anti-CD3 and anti-CD28 antibody stimulation of PBMCs; type: cell-based; conditions: 48 hours
Protocol: Inhibition of T cell cytokine production following Anti-CD3 and anti-CD28 antibody stimulation of PBMCs. PBMCs were previously isolated from normal human donor Leukopheresis packs, purified by density gradient centrifugation (Ficoll Hypaque), and cryopreserved using INCELL Freezing Medium. PBMCs were thawed (95% viability), washed, and seeded (in RPMI complete medium containing serum replacement, PSG) at 2×10^5 cells per well into 96-well flat bottom plates. Cells were pre-incubated with serially diluted (100 nM-0.003 nM final) ShK[1-35], Fc-L10-ShK[1-35], or Fc control for 1 hour before the addition of aCD3 and aCD28 (2.5 ng/mL and 100 ng/mL respectively) in a final assay volume of […]. Supernatants were collected after 48 hours, and analyzed using the Meso Scale Discovery (MSD) SECTOR™ Imager 6000 (Meso Scale Discovery, Gaithersbury, Md.) to measure the IL-2 and IFNg protein levels by utilizing electrochemiluminescence (ECL). […] of supernatant was added to the MSD multi-spot 96-well plates (each well containing IL-2, TNFa, and IFNg capture antibodies). The plates were sealed and incubated at room temperature on a plate shaker for 1 hour. Then […] of Ruthenium-labeled detection antibodies (1 ug/ml final of IL-2, TNFα, and IFNγ in Antibody Dilution Buffer) and […] of 2×MSD Read Buffer were added. The plates were sealed, covered with tin foil, and incubated at room temperature on a plate shaker for 1 hour. The plates were then read on the SECTOR™ Imager 6000. […] (POC=Percent Of Control of response in the absence of inhibitor).

[4] = test system: T cell proliferation in human PBMCs; experiment: Inhibition of T cell proliferation (3H-thymidine incorporation) following anti-CD3 and anti-CD28 stimulation of PBMCs; type: cell-based; conditions: pre-incubation with anti-human CD32 blocking antibody
Text: Inhibition of T cell proliferation following anti-CD3 and anti-CD28 antibody stimulation of PBMCs. PBMC's were previously isolated from normal human donor Leukophoresis packs, purified by density gradient centrifugation (Ficoll Hypaque), cryopreserved in CPZ Cryopreservation Medium Complete (INCELL, MCPZF-100 plus 10% DMSO final). PBMC's were thawed (95% viability), washed, and seeded at 2×10^5 cells per well in culture medium (RPMI medium 1640; GIBCO) supplemented with 10% fetal calf serum, 100 U/ml penicillin, […] streptomycin, 2 mM L-glutamine, 100 μM non-essential amino acids, and 20 μM 2-ME) in 96-well flat-bottom tissue culture plates. Cells were pre-incubated with either anti-human CD32 (FcyRII) blocking antibody (per manufacturers instructions EASY SEP Human Biotin Selection Kit #18553, StemCell Technologies Vancouver, BC) or Fc-L10-ShK (100 nM-0.001 nM final) for 45 min. Fc-L10-ShK (100 nM-0.001 nM final) was then added to the cells containing anti-human CD32 blocking antibody while medium was added to the cells containing Fc-L10-ShK. Both sets were incubated for an additional 45 min before stimulating for 48 hr with aCD3/aCD28 (0.2 ng/ml and 100 ng/ml, respectively). Final assay volume was 200 ul. […] Cells were then harvested onto glass fiber filters and radioactivity was measured in a B-scintillation counter.

[5] = test system: upregulation of CD40L and IL-2R on CD4+ T cells in human whole blood; experiment: Ex vivo human whole blood assay, thapsigargin-induced cell surface CD40L and IL-2R on T cells (FACS); type: cell-based; conditions: 24 hours
[6] = target: HEK 293 cells overexpressing human Kv1.3 (Homo sapiens, UniProt P22001); experiment: Immunohistochemistry analysis of binding to HEK 293 cells overexpressing human Kv1.3; conditions: 5 ug/ml, fixed cells, confocal microscopy
Chain of HEK 293 cells overexpressing human Kv1.3 (P22001 whole entry): as above
Protocol: HEK 293 cells overexpressing human Kv1.3 (HEK Kv1.3) were obtained from BioFocus plc (Cambridge, UK) and maintained per manufacturer's recommendation. The parental HEK 293 cell line was used as a control. Cells were plated on Poly-D-Lysine 24 well plates (#35-4414; Becton-Dickinson, Bedford, Mass.) and allowed to grow to approximately 70% confluence. HEK KV1.3 were plated at 0.5×10e5 cells/well in 1 ml/well of medium. HEK 293 cells were plated at a density of 1.5×10e5 cells/well in 1 ml/well of medium. […] Cells were stained by incubating with 0.2 ml/well of 5 ug/ml Fc-L10-ShK[1-35] in PBS/BSA for 30′ at room temperature. Fc-L10-ShK[1-35] was aspirated and then the cells were washed one time with PBS/0.5% BSA. Detection antibody (Goat F(ab)2 anti-human IgG-phycoerythrin; Southern Biotech Associates, Birmingham, Ala.) was added to the wells at 5 ug/ml in PBS/0.5% BSA and incubated for 30′ at room temperature. Wash cells once with PBS/0.5% BSA and examine using confocal microscopy (LSM 510 Meta Confocal Microscope; Carl Zeiss AG, Germany). […] In disease settings where activated T effector memory cells have been reported to overproduce Kv1.3, this reagent can find utility in both targeting these cells and in their detection.

[7] = test system: IL-2 and IFNg production from PMA and anti-CD3 stimulated human PBMCs; experiment: Inhibition of T cell cytokine production following PMA and anti-CD3 antibody stimulation of PBMCs; type: cell-based; conditions: 48 hr
Text: Inhibition of T cell cytokine production following PMA and anti-CD3 antibody stimulation of PBMCs. PBMC's were previously isolated from normal human donor Leukophoresis packs, purified by density gradient centrifugation (Ficoll Hypaque), cryopreserved in CPZ Cryopreservation Medium Complete (INCELL, MCPZF-100 plus 10% DMSO final). PBMC's were thawed (95% viability), washed, and seeded at 2×10^5 cells per well in culture medium (RPMI medium 1640; GIBCO) supplemented with 10% fetal calf serum, 100 U/ml penicillin, […] streptomycin 2 mM L-glutamine, 100 uM non-essential amino acids, and 20 uM 2-ME) in 96-well flat-bottom tissue culture plates. Cells were pre-incubated with serially diluted (100 nM-0.001 nM final) ShK[1-35], Fc-L10-ShK[1-35] or fc control for 90 min before stimulating for 48 hr with PMA/anti-CD3 (1 ng/ml and 50 ng/ml, respectively) in a final assay volume of 200 ul. Analysis of the assay samples was performed using the Meso Scale Discovery (MSD) SECTOR™ Imager 6000 (Meso Scale Discovery, Gaithersbury, Md.) to measure the IL-2 and IFNg protein levels by utilizing electrochemiluminescence (ECL). […] For each well, 20 ul of Ruthenium-labeled detection antibodies (1 ug/ml final in Antibody Dilution Buffer; […], TNF, IFNγ) and 130 ul of 2×MSD Read Buffer added, final volume 150 ul. […] The plates were then read on the SECTOR™ Imager 6000. […]

[8] = target: T1, Kv1.3; experiment: Whole cell patch clamp electrophysiology on HEK293 cells stably expressing human Kv1.3; type: cell-based

T1 sequence (P22001 whole entry): as above

| Substance | IC50 [1] | Binding response on fixed HEK 293 cells overexpressing Kv1.3 [2] | Binding response on untransfected HEK 293 cells [2] | Inhibition of IFNg production [3] | Inhibition of IL-2 production [3] | Effect of pre-blocking with anti-CD32 (FcR) blocking antibody on inhibition of T cell proliferation [4] | Thapsigargin-induced upregulation of CD40L on T cells in human whole blood [5] | Thapsigargin-induced upregulation of the IL-2R on T cells in human whole blood [5] | Binding (staining) to Kv1.3 overexpressing HEK 293 cells [6] | Binding (staining) to untransfected HEK 293 cells [6] | Inhibition of IFNγ production [7] | Inhibition of IL-2 production [7] | IC50 ([8]; HEK293 cells stably expressing human Kv1.3, mean±s.e.m., estimated, read-out: IC50, block of outward potassium current) | Blockade of human Kv1.3 current (in words) ([8]; patch clamp electrophysiology) |
| --- | --- | --- | --- | --- | --- | --- | --- | --- | --- | --- | --- | --- | --- | --- |
| E. coli-derived ShK[2-35]-L-Fc | 4.9 nM | – | – | – | – | – | – | – | – | – | – | – | – | – |
| Fc-L10-ShK[1-35]: Fc region of human IgG1 fused in-frame via L10 linker to Kv1.3 inhibitor peptide ShK[1-35]; SEQ ID NO: 78 | – | dose-dependent increase in the peptibody binding | does not elicit a response from untransfected HEK 293 cells | nearly complete | nearly complete | little effect | suppressed | suppressed | binds to Kv1.3 overexpressing HEK 293 cells | little binding to untransfected cells | potently inhibits IL-2 and IFNg production | potently inhibits IL-2 and IFNg production | 0.015 ± 0.002 nM | potently blocked human Kv1.3 |
